Values quoted from earlier work, collected in patent US10550165B2, “Peptide for inducing regeneration of tissue and use thereof” (STEMRIM INC., priority 2011, dated 2020).

B1: amino acids of positions 90 to 176: HMGB1 sequence consisting of the amino acids of positions 90 to 176 (Palumbo et al.) (protein, UniProt P09429 90-176, looked up, fragment)
chain: KDPNAPKRPPSAFFLFCSEYRPKIKGEHPGLSIGDVAKKLGEMWNNTAADDKQPYEKKAAKLKEKYEKDIAAYRAKGKPDAAKKGVV
B2: amino acids of positions 1 to 89: HMGB1 sequence consisting of the amino acids of positions 1 to 89 (Palumbo et al.) (protein, UniProt P09429 1-89, looked up, fragment)
chain: MGKGDPKKPRGKMSSYAFFVQTCREEHKKKHPDASVNFSEFSKKCSERWKTMSAKEKGKFEDMAKADKARYEREMKTYIPPKGETKKKF
B3: amino acids of positions 1 to 176: HMGB1 sequence consisting of the amino acids of positions 1 to 176 (Palumbo et al.) (protein, UniProt P09429 1-176, looked up, fragment)
chain: MGKGDPKKPRGKMSSYAFFVQTCREEHKKKHPDASVNFSEFSKKCSERWKTMSAKEKGKFEDMAKADKARYEREMKTYIPPKGETKKKFKDPNAPKRPPSAFFLFCSEYRPKIKGEHPGLSIGDVAKKLGEMWNNTAADDKQPYEKKAAKLKEKYEKDIAAYRAKGKPDAAKKGVV
B4: amino acids of positions 1 to 187: HMGB1 sequence of positions 1 to 187 resulting from cleavage at the C terminal end (Palumbo et al.) (protein, UniProt P09429 1-187, looked up, fragment)
chain: MGKGDPKKPRGKMSSYAFFVQTCREEHKKKHPDASVNFSEFSKKCSERWKTMSAKEKGKFEDMAKADKARYEREMKTYIPPKGETKKKFKDPNAPKRPPSAFFLFCSEYRPKIKGEHPGLSIGDVAKKLGEMWNNTAADDKQPYEKKAAKLKEKYEKDIAAYRAKGKPDAAKKGVVKAEKSKKKKEE
B5: amino acids 88 to 162: HMGB1 fragment of amino acids 88 to 162 (Youn et al.) (protein, UniProt P09429 88-162, looked up, fragment)
chain: KFKDPNAPKRPPSAFFLFCSEYRPKIKGEHPGLSIGDVAKKLGEMWNNTAADDKQPYEKKAAKLKEKYEKDIAAY
B6: amino acids 1 to 79: HMGB1 fragment of amino acids 1 to 79 (Youn et al.) (protein, UniProt P09429 1-79, looked up, fragment)
chain: MGKGDPKKPRGKMSSYAFFVQTCREEHKKKHPDASVNFSEFSKKCSERWKTMSAKEKGKFEDMAKADKARYEREMKTYI

system: mesoangioblasts; conditions: Palumbo et al., J. Cell Biol. 2004; cited from earlier work

| Molecule | cell migration-promoting activity |
| --- | --- |
| B1 | almost no activity |
| B2 | almost no activity |
| B3 | almost no activity |
| B4 | retains the cell migration-promoting activity of HMGB1 |

system: not given; conditions: Youn et al., J Immunol 2008; cited from earlier work

| Molecule | LPS-binding activity |
| --- | --- |
| B5 | lack the LPS-binding activity |
| B6 | lack the LPS-binding activity |
